Laboratory results as given in PMC5847526 (2018).

Target: Lumi4-Tb-SNAP-FLT3 on HEK293 cells (UniProt P36888 27-993, Lumi4-Tb on the SNAP tag)
Assay: FRET

Sequence of Lumi4-Tb-SNAP-FLT3 on HEK293 cells (P36888 27-993): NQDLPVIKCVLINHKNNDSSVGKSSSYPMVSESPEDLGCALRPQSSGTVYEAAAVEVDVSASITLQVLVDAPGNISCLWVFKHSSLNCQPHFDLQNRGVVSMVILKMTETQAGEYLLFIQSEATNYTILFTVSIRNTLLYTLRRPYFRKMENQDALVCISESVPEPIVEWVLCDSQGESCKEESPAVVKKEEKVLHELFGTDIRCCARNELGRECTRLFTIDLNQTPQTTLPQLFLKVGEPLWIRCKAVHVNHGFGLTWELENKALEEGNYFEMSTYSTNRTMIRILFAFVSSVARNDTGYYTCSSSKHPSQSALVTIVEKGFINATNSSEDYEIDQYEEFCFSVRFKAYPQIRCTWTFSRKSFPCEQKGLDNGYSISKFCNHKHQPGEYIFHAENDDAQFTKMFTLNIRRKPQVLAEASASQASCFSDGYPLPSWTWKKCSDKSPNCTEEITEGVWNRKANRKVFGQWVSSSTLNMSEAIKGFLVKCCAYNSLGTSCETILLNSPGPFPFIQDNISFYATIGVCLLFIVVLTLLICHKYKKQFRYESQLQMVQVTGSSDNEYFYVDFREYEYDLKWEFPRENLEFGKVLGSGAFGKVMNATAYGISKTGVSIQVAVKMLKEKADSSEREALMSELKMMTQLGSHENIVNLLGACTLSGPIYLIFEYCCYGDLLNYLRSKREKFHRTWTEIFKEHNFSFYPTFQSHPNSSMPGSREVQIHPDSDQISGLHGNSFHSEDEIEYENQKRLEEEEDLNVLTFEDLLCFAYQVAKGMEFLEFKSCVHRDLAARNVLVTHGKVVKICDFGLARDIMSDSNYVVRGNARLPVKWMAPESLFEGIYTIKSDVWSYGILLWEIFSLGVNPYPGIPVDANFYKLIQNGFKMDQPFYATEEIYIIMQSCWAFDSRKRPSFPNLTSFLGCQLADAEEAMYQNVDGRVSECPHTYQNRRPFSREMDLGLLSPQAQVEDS

B1: human recombinant FL (rh-FLT3-L), labelled as Red-FL (ligand)
chain: TQDCSFQHSPISSDFAVKIRELSDYLLQDYPVTVASNLQDEELCGGLWRLVLAQRWMERLKTVAGSKMQGLLERVNTEIHFVTKCAFQPPPSCLRFVQTNISRLLQETSEQLVALKPWITRQNFSRCLELQCQPDSSTLPPPWSPRPLEATAPTAPQPPLLLLLLLPVGLLLLAAAWCLHWQRTRRRTPRPGEQVPPVPSPQDLLLVEH
modifications: red fluorophore (Red-FL), position not stated
IC50: 0.57 nM
